Measurements published in article PMC3513319, “The Importance of the Interaction of CheD with CheC and the Chemoreceptors Compared to Its Enzymatic Activity during Chemotaxis in Bacillus subtilis” (PLoS ONE, 2012).

T1: CheC (Bacillus subtilis, UniProt P40403 1-209)
T1 construct: CheC, CheY-P phosphatase, Bacillus subtilis; also called pTM18 (pGEX-6P-2::cheC2); source: E. coli, overexpressed as GST-CheC, purified (GSTrap), GST removed with PreScission protease; not shown: GST, N-terminal, cleaved
T1 sequence (looked up): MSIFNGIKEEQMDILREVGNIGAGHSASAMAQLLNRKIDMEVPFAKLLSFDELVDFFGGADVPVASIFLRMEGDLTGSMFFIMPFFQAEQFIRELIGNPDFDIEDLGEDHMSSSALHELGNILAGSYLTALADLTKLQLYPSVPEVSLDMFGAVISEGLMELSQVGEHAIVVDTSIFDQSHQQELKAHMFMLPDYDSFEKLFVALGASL


How the values were obtained:
[1] = molecular target: GST-CheD-F102E (Bacillus subtilis) (UniProt P40404); assay: pull-down; 80 µM GST-CheD or GST-CheD-F102E on glutathione beads; 100 µM CheC or receptor fragment added for 10 min; washed with TBS + 1% Triton X-100; eluted with glutathione; SDS-PAGE, Coomassie stain, densitometry
CheC [2] = molecular target: T1, CheC; assay: SPR; as a1, but with 20 µM CheY and 5 mM acetyl phosphate (CheYp) in the running buffer and in the injected CheC; settings: both partners purified
CheC [3] = molecular target: T1, CheC; assay: SPR; as a1, but with 20 µM CheY in the running buffer and in the injected CheC; settings: both partners purified
CheC [4] = molecular target: T1, CheC; assay: SPR; Biacore 3000, NTA chip; 500 RU of GST-6xHis-CheD immobilised; CheC injected at different concentrations (80 µl, 20 µl/min); running buffer TKMD (50 mM Tris pH 8.0, 50 mM KCl, 5 mM MgCl2, 0.1 mM DTT); triplicate; settings: both partners purified

percent of the CheC bound by GST-CheD [1] [%]	Kd (CheC [2]) [µM]	koff (CheC [2]) [s⁻¹]	kon (CheC [2]) [M⁻¹ s⁻¹]	Kd (CheC [3]) [µM]	koff (CheC [3]) [s⁻¹]	kon (CheC [3]) [M⁻¹ s⁻¹]	Kd (CheC [4]) [µM]	koff (CheC [4]) [s⁻¹]	kon (CheC [4]) [M⁻¹ s⁻¹]	Molecule
10	–	–	–	–	–	–	–	–	–	CheC (from UniProt P40403 1-209) (enzyme)
–	0.546	0.0976	179000	7.01	0.0743	10600	3.95	0.0568	14700	GST-6xHis-CheD (enzyme, Bacillus subtilis, UniProt P40404 1-166, looked up, CheD, chemoreceptor glutamine deamidase, Bacillus subtilis; cheD gene amplified from OI1085 genomic DNA, cloned in pGEX-6P-2; Order of the tags by the printed name GST-6xHis-CheD: the 6xHis lies between GST and CheD; Held on the NTA chip by the 6xHis; also called pWY88 (pGEX-6P-2::6xHis-cheD2); source: E. coli, overexpressed, purified (GSTrap); not shown: GST, N-terminal, kept; 6xHis, N-terminal, …) MSTTEAVVIKVGIADVKIARFPDTIRTSGLGSCVGLVLYDKEKQTAGLVHVMLPDSTLSKTAELNRAKYADTAVQTTIDMLIEAGCRKFALKAKLAGGSEMFKFKSTNDLMKIGPRNVLAIKEQLSLFNIPIISEDTGGSSGRTIEFEPKSCMLHIRTVKQGEKTI
